For the test, the target named is vitreous collagen fibrils (rabbit), in the collagen-containing pellet (rabbit (endogenous in rabbit vitreous)). The experiment in a line: co-sedimentation; vitreous of uninjected rabbit eyes digested with hyaluronan lyase (24 h, 37 °C), centrifuged 13 000g 30 min; opticin in supernatant and collagen-containing pellet quantified by SRM-MS.

In the case of “endogenous rabbit opticin (natural protein)”, the percent of opticin in the collagen-containing pellet is 6%.

The values above are taken from PMC7341526.
